This is an account of results in US11391726B2, “MoT cells as a therapeutic screening tool for regulatory t-cell activity” (ARIZONA BOARD OF REGENTS ON BEHALF OF ARIZONA STATE …, priority 2018, dated 2022).

In one assay the test system is MoT cells. The assay is described as follows: CFSE suppression assay: Mabs pre-incubated with MoT cells, then co-cultured with CD3/28-stimulated CD4+ PBMC. The conditions noted are these: Mab pre-incubated with MoT cells 30 minutes, CD4+ PBMC:MoT ratio 1:1/2, CFSE flow cytometry (FIGS. 5D, 5F, 5H). Type of assay: cell-based, human. How it is done: (§1) Suppression assays. After IRB approval at Arizona State University (protocol #0601000548), peripheral blood was collected from healthy donors. After Ficoll-Paque Plus gradient separation of the buffy coat, CD4+ cells were purified using EasySep Human CD4^+ T Cell Isolation Kit (Catalog #17952 from Stemcell Technologies). Cells were allowed to rest overnight in cIMDM at 37° C. prior to labeling with CFSE (Carboxyfluorescein succinimidyl ester, from Cayman Chemica cat #10009853) dye to track cell divisions. The following day, CD4^+ T cells were counted, stained with CFSE, washed in PBS and then plated in IMDM with 10% FBS at 3×10^5 cells per well in a 48-well plate coated with OKT3 antibody at 5.0 ug/mL for 2 hours at 37° C. then washed twice in PBS before adding soluble co-stimulatory anti-CD28 (eBioscience clone CD28.6) at 5.0 ug/mL final concentration.
In some studies MoT and Jurkat cells were labeled with Cell Trace FarRed dye (Thermofisher) to gate MoT and Jurkat cells away from CD4^+ PBMC in flow cytometry analysis. Two-fold serial dilutions of MoT and Jurkat cells were added to CD4^+ PBMC, starting at 1.5×10^5 MoT and Jurkat cells (1:1/2 ratio CD4^+ T cells:tumor cells). Final volume per well was 1 mL. Cells were incubated for 5 days. […]
For orientation: A flow cytometer gives signals particle by particle.

The next assay deals with CD4+ PBMC. The assay is described as follows: CFSE proliferation assay: Mabs co-incubated with CD3/28-stimulated CD4+ PBMC without MoT cells. Type of assay: cell-based, human. The conditions noted are these: no MoT cells (FIGS. 5C, 5E, 5G). How it is done:
as §1
(FIG. 5A) Unstimulated PBMC. (FIG. 5B) CD3/28-stimulated CD4^+ PBMC cell division without MoT cells. (FIG. 5C) Anti-GITR, (FIG. 5E) Anti-CCR4 mogamulizumab, and (FIG. 5G) anti-PDL-1 (atezolizumab) co-incubated with PBMCs. (FIG. 5D) Anti-GITR, (FIG. 5F) anti-CCR4 (mogamulizumab), and (FIG. 5H) anti-PDL-1 (atezolizumab) co-incubated with PBMCs and MoT cells (1:½ ratio).

B1: mogamulizumab (antibody, chains of the INN, looked up, V domains shown)
VH: EVQLVESGGDLVQPGRSLRLSCAASGFIFSNYGMSWVRQAPGKGLEWVATISSASTYSYYPDSVKGRFTISRDNAKNSLYLQMNSLRVEDTALYYCGRHSDGNFAFGYWGQGTLVTVSS
VL: DVLMTQSPLSLPVTPGEPASISCRSSRNIVHINGDTYLEWYLQKPGQSPQLLIYKVSNRFSGVPDRFSGSGSGTDFTLKISRVEAEDVGVYYCFQGSLLPWTFGQGTKVEIK
Take B1: the “reversal of MoT cell-mediated suppression of CD4+ PBMC proliferation” value in the assay with MoT cells is “None of the checkpoint inhibitor Mabs including anti-GITR reversed MoT cell-mediated suppression”; in the assay with MoT cells (listed as ant-CCR4), “did not attenuate MoT Treg suppressive activity”. The “suppression or inhibition of CD4+ PBMC proliferation by the Mab alone” value in the assay with CD4+ PBMC is given as “do not suppress or inhibit”.
